Experimental data as given in PMC8399149, “Engineering of Yeast Old Yellow Enzyme OYE3 Enables Its Capability Discriminating of (E)-Citral and (Z)-Citral” (Molecules, 2021).

Legend:
purified protein [1] = substrate: CC(C)=CCC/C(C)=C/C=O; assay: purified protein; assay type: biochemical, Saccharomyces cerevisiae; conditions: FMN, NADPH active site
purified protein [2] = substrate: CC(C)=CCC/C(C)=C\C=O; assay: purified protein; assay type: biochemical, Saccharomyces cerevisiae; conditions: FMN; NADPH active site; H191/N194 hydrogen bonds with the carbonyl oxygen of citral, hydride from FMNH2 to Cβ, Y196 proton donor (docking)
[3] = H191/N194 hydrogen bonds with the carbonyl oxygen of citral, hydride from FMNH2 to Cβ, Y196 proton donor (docking)

Row | Protein | Km (purified protein [1]; [3]) [µM] | Vmax (purified protein [1]; [3]) [µmol/min/mg] | kcat (purified protein [1]; [3]) [s⁻¹] | kcat/Km (purified protein [1]; [3]) [M⁻¹ s⁻¹] | Km (purified protein [2]) [µM] | Vmax (purified protein [2]) [µmol/min/mg] | kcat (purified protein [2]) [s⁻¹] | kcat/Km (purified protein [2]) [M⁻¹ s⁻¹] | Km (purified protein [1]; accommodation similar to OYE3 (docking)) [µM]
1 | old yellow enzyme OYE3 (Saccharomyces cerevisiae S288C) (protein) PFVKGFEPISLRDTNLFEPIKIGNTQLAHRAVMPPLTRMRATHPGNIPNKEWAAVYYGQRAQRPGTMIITEGTFISPQAGGYDNAPGIWSDEQVAEWKNIFLAIHDCQSFAWVQLWSLGWASFPDVLARDGLRYDCASDRVYMNATLQEKAKDANNLEHSLTKDDIKQYIKDYIHAAKNSIAAGADGVEIHSANGYLLNQFLDPHSNKRTDEYGGTIENRARFTLEVVDALIETIGPERVGLRLSPYGTFNSMSGGAEPGIIAQYSYVLGELEKRAKAGKRLAFVHLVEPRVTDPSLVEGEGEYSEGTNDFAYSIWKGPIIRAGNYALHPEVVREQVKDPRTLIGYGRFFISNPDLVYRLEEGLPLNKYDRSTFYTMSAEGYTDYPTYEEAVDLGWNKN | 50 ± 10 | 0.16 | 0.13 ± 0.02 | 2760 ± 110 | 70 ± 10 | 0.12 | 0.1 ± 0.01 | 1490 ± 80 | 
2 | old yellow enzyme OYE3 (Saccharomyces cerevisiae S288C; S297F/W117G) (protein) MPFVKGFEPISLRDTNLFEPIKIGNTQLAHRAVMPPLTRMRATHPGNIPNKEWAAVYYGQRAQRPGTMIITEGTFISPQAGGYDNAPGIWSDEQVAEWKNIFLAIHDCQSFAWVQLGSLGWASFPDVLARDGLRYDCASDRVYMNATLQEKAKDANNLEHSLTKDDIKQYIKDYIHAAKNSIAAGADGVEIHSANGYLLNQFLDPHSNKRTDEYGGTIENRARFTLEVVDALIETIGPERVGLRLSPYGTFNSMSGGAEPGIIAQYSYVLGELEKRAKAGKRLAFVHLVEPRVTDPFLVEGEGEYSEGTNDFAYSIWKGPIIRAGNYALHPEVVREQVKDPRTLIGYGRFFISNPDLVYRLEEGLPLNKYDRSTFYTMSAEGYTDYPTYEEAVDLGWNKN |  |  |  |  |  |  |  |  | 90
